{
  "source": "patent US20180112194A1",
  "about": "“MUTANT HUMAN DEOXYCYTIDINE KINASE” (Centre National De La Recherche Scientifique, priority 2015, published 2018)",
  "key": {"[1]": {"molecular_target": "T1, human dCK (Homo sapiens, UniProt P27707, E171K/E247K/L249M)", "T1 construct": "His tag (C, cleaved yes); made in house; host or cells: E. coli BL21 DE3 pLysE (pET14b)", "T1 sequence (P27707 whole entry E171K/E247K/L249M)": "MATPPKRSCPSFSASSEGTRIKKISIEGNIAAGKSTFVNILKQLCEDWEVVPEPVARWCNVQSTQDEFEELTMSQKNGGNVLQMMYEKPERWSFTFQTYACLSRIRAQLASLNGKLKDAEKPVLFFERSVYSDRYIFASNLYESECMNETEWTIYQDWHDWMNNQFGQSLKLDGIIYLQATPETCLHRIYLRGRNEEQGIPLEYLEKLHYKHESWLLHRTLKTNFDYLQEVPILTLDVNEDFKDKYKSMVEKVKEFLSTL", "conditions": "cited from earlier work"}, "[2]": {"tested_on": "Messa10K cells", "conditions": "cited from earlier work"}, "[3]": {"tested_on": "Messa10K cells", "conditions": "for efficiency of SIN vectors versus wt vectors / plateau of maximum mortality: gemcitabine; for efficiency of SIN vectors versus wt vectors: Messa 10K, data not shown", "experimental": "Methods to measure sensitivity of a cell, such as a eukaryotic cell are known to the skilled in the art. In one example, cells were transduced with a vector comprising for example the mutant “M36” or the wild-type hdCK. Therefore, 1×10^6 cells were contacted with 1 ml of 1:5 diluted viral vectors rescued from the isolated clones. Transduced cells were selected, for example, by adding puromycin 24 h after transduction using 0.6 μg/ml to HEK-293T cells, 0.6 μg/ml to HEK-293T-CD4^+ cells, 0.5 μg/ml to Messa10K cells. The transduced cells were then for example seeded at 5,000 cells per well in a 96-well plate and grown overnight at 37° C. Typically, two rows were used for each population. 12 h after seeding, increasing concentrations of for example gemcitabine (0-400 nM or […]), or araC (0-10 mM) were added to each well and left in culture for further 72 h. Cell viability was measured by MTT test (CellTiter 96 Non-Radioactive Cell Proliferation Assay, Promega) and the number of living cells in each well was evaluated by measuring the OD at 570 nm. For each population, the fraction of living cells was calculated as OD570 concentration X Gem/OD570 concentration 0 Gem, to estimate the sensitivity of the population to the prodrug.\nTests of sensitivity to anticancer drugs. Cells were seeded at 5000 cells per well in a 96-well plate and grown overnight at 37° C. Two rows were used for each population. 12 h after seeding, increasing concentrations of Gemcitabine (0-400 nM or 0-100 μM), or AraC (0-10 mM) were added to each well and left in culture for further 72 h. Cell viability was measured by MTT test (CellTiter 96 Non-Radioactive Cell Proliferation Assay, Promega) and the number of living cells in each well was evaluated by measuring the OD at 570 nm. For each population, the fraction of alive cells was calculated as OD570 concentration X Gem/OD570 concentration 0 Gem, to estimate the sensitivity of the population to the prodrug. Tests of sensitivity to antiviral drugs. Viral vectors were generated by transfection of HEK-293T cells with 10 μg of pCMVAR8.91 plasmid, 5 μg of pHCMV-G plasmid, and 10 μg of genomic plasmid SDY-dCK (described in Rossolillo et al. 2012) encoding either for the wild type sequence of the human dCK or the M36 variant. Transduction was performed on 1×10^6 HEK-293T-CD4+ cells with viral vectors. Transduced cells were selected in the presence of 0.6 μg/ml of puromycin, added 24 h after transduction. 50 to 200 individual puromycin-resistant clones were pooled and expanded obtaining the polyclonal wt-dCK cell population (wtdCK-pcP, for wt dCK polyclonal population) and the […] cell population (M36-pcP). Vectors for challenging infection in the presence of antiviral drugs were generated by transfection with 10 μg of pTopo plasmid encoding for the HIV envelope ADA (ref, plus Hamoudi 2013), 5 μg of pHCMV-G plasmid, and 10 μg of genomic plasmid SDY-Luc, which is a variant of the pSDY plasmid encoding for the firefly luciferase. These viruses were used to transduce 1×10^6 HEK-293T-CD4+-wtdCK or HEK-293T-CD4+-M36 cells. Viral infection was then monitored 48 hours after transduction. For this the medium was removed, the cells were washed twice in PBS, lysed, centrifuged, and the supernatant was used to measure luciferase activity according to the manufacturer's protocol (Promega, Fitchburg, Wis., USA) with a Glomax luminometer (Promega, Fitchburg, Wis., USA). Western blot analyses. Messa10K cell lines expressing either the wt dCK or M36, both in the context of a proviral DNA with functional LTR or with an inactivated LTR were lysed in 1×RIPA buffer, and 30, 60, 120 μg of total protein (evaluated by Bradford) for each cell type and loaded on a 12% bis-tricine gel (Invitrogen)."}, "[4]": {"tested_on": "human dCK", "experiment": "Phosphorylation tests in vitro (NADH-based assay) with purified recombinant dCK proteins", "assay_type": "biochemical", "conditions": "FIG. 9B, G12 values from Rossolillo et al. 2012", "experimental": "(§1) Methods to qualitatively and/or quantitatively evaluate phosphorylation of a compound, such as a nucleoside compound, are known to the skilled in the art. In one example, the efficiency of phosphorylation of a substrate such as the natural substrate deoxycytidine, or the prodrugs gemcitabine and AraC, is measured for example with the purified wild-type hdCK and the mutant “M36” in typically a NADH-based assay as described in (Agarwal K C. et al. 1978 Methods Enzymol 51: 483-490). Accordingly, the enzymes are typically assayed at, for example, room temperature at a concentration of 0.45 μM for dC, 0.3 μM for Gemcitabine, and 0.3 for AraC. dC is typically used at concentrations of 5 to 50 μM, Gemcitabine at concentrations of 20 μM to 1 mM, and araC is typically used at concentrations of 20μM to 0.5 mM. ATP is used typically at 4 mM.\n(§2) Tests of sensitivity to anticancer drugs. […] Two rows were used for each population. […] Tests of sensitivity to antiviral drugs. […] Viral infection was then monitored 48 hours after transduction. […] Western blot analyses. […] Production and purification of recombinant dCK proteins. […] Phosphorylation tests in vitro. […] ATP was 4 mM. All experiments were performed in triplicate.\n(§3) To characterise its biochemical properties M36 and, as a control, the wt dCK protein, were produced as recombinant, C-ter His tagged proteins in E. coli, purified and tested for their efficiency of phosphorylation in vitro. As it was the case for the G12 mutant (Rossolillo et al. 2012) also for M36 the substitutions present in the mutant led to a decrease in the Vmax of phosphorylation as function of the concentration of substrate, for both dC and for gemcitabine, but while the decrease is dramatic for the dC it is only modest for gemcitabine (FIGS. 8A-B)."}, "[5]": {"molecular_target": "T2, human dCK (Homo sapiens, UniProt P27707, E171K/E247K/L249M/S169N)", "T2 construct": "His tag (C, cleaved yes); made in house; host or cells: E. coli BL21 DE3 pLysE (pET14b)", "T2 sequence (P27707 whole entry S169N/E171K/E247K/L249M)": "as the sequence (P27707 whole entry E171K/E247K/L249M) above, with S169N counted along it", "experiment": "Phosphorylation tests in vitro (NADH-based assay) with purified recombinant dCK proteins", "assay_type": "biochemical", "conditions": "for Km compared to wt dCK / Kcat relative to wt dCK: FIG. 9A", "experimental": "as §1, §2, §3"}, "[6]": {"tested_on": "HIV-derived vectors in HEK 293T/CD4+ cells", "experiment": "Tests of sensitivity to antiviral drugs: infection of hdCK-transduced cells by luciferase-encoding HIV-derived vectors", "assay_type": "cell-based", "conditions": "luciferase 48 hours after infection", "experimental": "as §2\nFirstly HEK 293T/CD4^+ cells were transduced at a low MOI of by the vector encoding the M36 variant and selection of the successfully transduced cells was performed using puromycin. The selected cell line was then transduced with lentiviral vectors, as described in Materials and Methods, encoding the luciferase gene and luciferase levels ere measured 48 hours after infection. A comparison with the level of luciferase detected in the parallel infection of control HEK 293T/CD4^+ cells expressing as a transgene the wt dCK gene was performed and the data plotted."}},
  "note": "Read-outs that look alike come from different tables or passages of the source.",
  "data": [
    {"substance": "G12: hdCK mutant comprising three mutations, Glu171Lys, Glu247Lys and Leu249Met, described in Rossolillo et al. 2012 and WO2011/058081", "values": [
      {"measurement": "ability to phosphorylate dC with respect to the wild type enzyme", "setting": "[1]; substrate dC", "result": "almost complete loss of ability"},
      {"measurement": "efficiency of phosphorylation of gemcitabine with respect to the wild type enzyme", "setting": "[1]; substrate gemcitabine", "result": "almost unaltered"},
      {"measurement": "sensitization to gemcitabine", "setting": "[2]; cells originally resistant to gemcitabine (Messa10K)", "result": 300, "unit": "fold"},
      {"measurement": "sensitization effect relative to the one induced with the wild-type enzyme", "setting": "[2]; gemcitabine, Messa10K", "result": 60, "unit": "times"},
      {"measurement": "efficiency of SIN vectors versus wt vectors", "setting": "[3]", "result": "more efficient"}
    ]},
    {"substance": "M36: mutant human deoxycytidine kinase (hdCK) with mutations S169N, E171K, E247K and L249M; delivered as lentiviral transgene or recombinant protein", "values": [
      {"measurement": "increase in Kcat M36 vs G12, factor", "setting": "[4]; natural substrate dC", "result": 9.5},
      {"measurement": "increase in Km M36 vs G12, factor", "setting": "[4]; natural substrate dC", "result": 3.5},
      {"measurement": "ratio of Kcat M36 vs G12", "setting": "[4]; substrate gemcitabine", "result": 1},
      {"measurement": "ratio of Km M36 vs G12", "setting": "[4]; substrate gemcitabine", "result": 1},
      {"measurement": "Km compared to wt dCK", "setting": "[5]; natural substrate dC", "result": "reversed"},
      {"measurement": "reduction of the Vmax of phosphorylation compared to wt dCK", "setting": "[5]; substrate AraC, FIG. 8C", "result": "very modest reduction"},
      {"measurement": "Kcat relative to wt dCK", "setting": "[5]; substrate AraC", "result": "approximately 50%"},
      {"measurement": "Km compared to wt dCK", "setting": "[5]; substrate AraC", "result": "increased"},
      {"measurement": "decrease in the Vmax of phosphorylation compared to wt dCK", "setting": "[5]; substrate dC, FIG. 8A", "result": "dramatic"},
      {"measurement": "Kcat relative to wt dCK", "setting": "[5]; substrate dC", "result": "approximately 50%"},
      {"measurement": "decrease in the Vmax of phosphorylation compared to wt dCK", "setting": "[5]; substrate gemcitabine, FIG. 8B", "result": "only modest"},
      {"measurement": "Kcat relative to wt dCK", "setting": "[5]; substrate gemcitabine", "result": "approximately 50%"},
      {"measurement": "Km compared to wt dCK", "setting": "[5]; substrate gemcitabine", "result": "increased"},
      {"measurement": "lower infectivity versus cells expressing wt dCK", "setting": "[6]; 3TC, FIG. 6", "result": "~2", "unit": "fold"},
      {"measurement": "resistance to infection versus cells expressing wt dCK", "setting": "[6]; ddC, FIG. 5", "result": "no significant increase in resistance"},
      {"measurement": "sensitisation to AraC with respect to control cells expressing exogenous wt dCK", "setting": "[3]; AraC, FIG. 7B", "result": "strong sensitisation"},
      {"measurement": "sensitisation phenotype to gemcitabine compared to G12", "setting": "[3]; Messa10K, FIG. 1 and 2", "result": "further improved sensitisation phenotype"},
      {"measurement": "sensitization to gemcitabine", "setting": "[3]; cells originally resistant to gemcitabine", "result": 900, "unit": "fold"},
      {"measurement": "sensitization of cells to cytarabine (AraC), factor", "setting": "[3]; cytarabine (AraC)", "result": "10,000"},
      {"measurement": "sensitisation of Messa 10K cells to fludarabine", "setting": "[3]; fludarabine, FIG. 7A", "result": "no significant sensitisation"},
      {"measurement": "efficiency of SIN vectors versus wt vectors", "setting": "[3]", "result": "more efficient"},
      {"measurement": "plateau of maximum mortality", "setting": "[3]; SIN vector (inactivated LTR)", "result": 80, "unit": "%"},
      {"measurement": "plateau of maximum mortality", "setting": "[3]; wt LTR vector", "result": 60, "unit": "%"}
    ]}
  ]
}
